Changes are numbered by the printed parent chain. One block for each binder: values may come before it.
Experiments:
[1] = biological target: T1, CD16aV allotype of human CD16a expressed on Jurkat-Lucia-NFAT-CD16 Reporter cells (InvivoGen) (human, UniProt P08637 17-254); assay: flow cytometry on Jurkat-CD16aV cells, serial dilutions, detection with Penta-His Alexa Fluor 647
T1 construct: whole, on cells; also called CD16a expressing cells; Jurkat CD16aV

[2] = biological target: T2, full length human CD16b stably expressed on transduced WT Jurkat cells (human, UniProt O75015 17-200); assay: flow cytometry on Jurkat-CD16b cells, serial dilutions, detection with Penta-His Alexa Fluor 647
T2 construct: whole, on cells; also called CD16b expressing cells; Jurkat CD16b

[3] = biological target: T3, CD32a expressed on Jurkat-NFAT-CD32a reporter cells (Invivogen jktl-nfat-cd32) (UniProt P12318 34-317, limits assumed); assay: flow cytometry on Jurkat-NFAT-CD32a cells, 4-fold serial dilutions, detection with anti-DARPin 1.1.1 antibody
T3 construct: whole, on cells; also called Jurkat-Lucia NFAT-CD32a Reporter cells; Fc receptor CD32a
T3 sequence (looked up): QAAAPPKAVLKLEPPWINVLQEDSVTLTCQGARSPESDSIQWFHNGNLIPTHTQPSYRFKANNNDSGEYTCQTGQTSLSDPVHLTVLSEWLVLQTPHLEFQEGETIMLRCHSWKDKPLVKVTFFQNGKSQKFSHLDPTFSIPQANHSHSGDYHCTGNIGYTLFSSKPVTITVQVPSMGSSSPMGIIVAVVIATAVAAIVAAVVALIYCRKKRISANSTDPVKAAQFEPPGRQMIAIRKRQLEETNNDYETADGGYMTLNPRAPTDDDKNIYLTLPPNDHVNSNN
Procedure: Serial dilutions (4-fold) of the constructs were incubated 30 min at 4° C. with 50000 cells in a 96-well plate. Detection antibody (anti-DARPin 1.1.1 Alexa Fluor […]) was subsequently added to the wells (2 μg/ml diluted in FACS buffer) and incubated at 4° C. for 30 min. Cold buffer was added, then cells were spun down prior to supernatant removal. Cells were then fixed with Cell fix buffer (BD) and signal was measured by flow cytometry.

[4] = biological target: T1, CD16aV allotype of human CD16a …; assay: cell-based or functional assay
[5] = biological target: T1, CD16aV allotype of human CD16a …; assay: cell-based or functional assay; remark: listed apart in the source
[6] = biological target: T1, CD16aV allotype of human CD16a …; assay: cell-based or functional assay; remark: listed apart in the source
[7] = biological target: T2, full length human CD16b stably …; assay: flow cytometry on Jurkat cells expressing CD16b, conditions as in Example 2
[8] = biological target: T1, CD16aV allotype of human CD16a …; assay: flow cytometry on Jurkat cells expressing CD16aV, conditions as in Example 2
[9] = biological target: T4, biotinylated cynomolgus CD16 target (bio-cCD16 of SEQ ID NO: 76) (cynomolgus monkey, biotinylated); assay: SPR (ProteOn XPR36), biotinylated target on neutravidin chip, DARPin injected at 100 nM and 1:3 dilutions, 1:1 Langmuir fit
T4 construct: also called Cyno CD16a
T4 chain: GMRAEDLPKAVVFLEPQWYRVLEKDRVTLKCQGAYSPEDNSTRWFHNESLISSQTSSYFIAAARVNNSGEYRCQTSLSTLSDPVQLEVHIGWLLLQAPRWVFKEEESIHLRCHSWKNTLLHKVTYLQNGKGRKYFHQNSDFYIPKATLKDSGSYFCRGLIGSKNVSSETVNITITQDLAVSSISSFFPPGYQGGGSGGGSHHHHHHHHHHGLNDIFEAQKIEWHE
Procedure: (§1) SPR measurements were performed using a ProteOn XPR36 instrument (BioRad). Each of biotinylated human target (bio-CD16aV of SEQ ID NO: 72) and biotinylated cyno target (bio-cCD16 of SEQ ID NO: 76) were immobilized on a neutravidin chip (NAHLC200M, Xantec ProteOn Sensor Chip) to a level of about 320 RU. The interactions of purified CD16a-specific ankyrin construct with bio-CD16aV or bio-cCD16 were measured by injecting the DARPins at 100 nM (and 1:3 dilutions) with an association of 180 s and dissociation of 600 s using a constant flow of 30 μl/min. The target was regenerated between the individual measurements using 31 mM H3PO4. The signals were double referenced against the running buffer (PBST) treated control lanes. The KD were calculated with a 1:1 Langmuir model fitting from the estimated on- and off-rates using standard procedures known to the person skilled in the art.

[10] = biological target: T5, biotinylated human CD16aV target (bio-CD16aV of SEQ ID NO: 72) (human, UniProt P08637 17-208, biotinylated (Sulfo-NHS-LC-Biotin kit)); assay: as above
T5 construct: also called recombinant CD16a target
Procedure: as §1

[11] = biological target: T1, CD16aV allotype of human CD16a …; assay: flow cytometry on Jurkat-CD16aV cells, 5-fold serial dilutions, detection with Penta-His Alexa Fluor 488
Procedure: (§2) Serial dilutions (5-fold) of the constructs were incubated 30 min at 4° C. with 50000 cells in a 96-well plate. […] Cold buffer was added, then cells were spun down prior to supernatant removal. Cells were then fixed with Cell fix buffer (BD) and signal was measured by flow cytometry.

[12] = biological target: T5, biotinylated human CD16aV target …; assay: SPR (ProteOn XPR36), bio-CD16aV immobilised on NLC chip, construct injected at 100 nM and 1:3 dilutions, PBST, 1:1 Langmuir fit
Procedure: SPR measurements were performed using a ProteOn XPR36 instrument (BioRad). […] The signals were double referenced against the running buffer (PBST) treated control lanes.

[13] = biological target: T2, full length human CD16b stably …; assay: flow cytometry on Jurkat-CD16b cells, 5-fold serial dilutions, detection with Penta-His Alexa Fluor 488
Procedure: as §2

T1 sequence (P08637 17-254 F176V): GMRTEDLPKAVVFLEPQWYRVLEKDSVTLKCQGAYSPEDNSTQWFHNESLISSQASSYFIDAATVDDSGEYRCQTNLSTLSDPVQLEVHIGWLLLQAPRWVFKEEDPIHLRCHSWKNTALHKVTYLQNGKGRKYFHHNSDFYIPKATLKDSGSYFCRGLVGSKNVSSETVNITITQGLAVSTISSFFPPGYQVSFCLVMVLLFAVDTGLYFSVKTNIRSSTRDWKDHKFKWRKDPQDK
T2 sequence (O75015 17-200): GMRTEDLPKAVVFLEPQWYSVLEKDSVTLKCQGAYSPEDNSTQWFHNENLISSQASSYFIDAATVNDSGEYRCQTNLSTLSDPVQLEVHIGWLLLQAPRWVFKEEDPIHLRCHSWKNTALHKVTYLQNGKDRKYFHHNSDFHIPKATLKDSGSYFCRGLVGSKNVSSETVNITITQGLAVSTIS
T5 sequence (P08637 other isoform, or with tags, fused parts or gaps): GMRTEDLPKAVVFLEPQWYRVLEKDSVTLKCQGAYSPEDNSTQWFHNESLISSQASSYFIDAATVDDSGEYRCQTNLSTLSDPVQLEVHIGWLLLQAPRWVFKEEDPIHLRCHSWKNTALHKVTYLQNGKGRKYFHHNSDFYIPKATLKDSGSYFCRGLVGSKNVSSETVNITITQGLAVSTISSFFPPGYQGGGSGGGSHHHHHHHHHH

binding result [1]: binds | binding result [2]: no binding (tested: 1000 nM)
B1: Construct No. 17 (SEQ ID NO: 20), 2D (HER2 × CD16a), DARPin #5 with N-terminal HER2 binder of SEQ ID NO: 9 (designed binder)
chain: MRGSHHHHHHDYKDDDDKPTPTPTGSDLGIKLLFAAAKGQDDEVRELLKAGADVNAKDFQGVTPLHIAAQSGHLEIVEVLLKAGADVNAKDVTGDTPLHLAAQHGHLEIVEVLLKAGADVNAQDERGWTPADLAADWGHEDIAEVLQKAAGSPTPTPTTPTPTPTTPTPTPTGSDLGAKLLRAAKKGQDDEVRELLKAGADVNAKDELGFTPLHVAAEEGHLEIVEVLLKAGADVNAKDSWGATPLHVAAWVGHLEIVEVLLKAGADVNAQDQEGQTPADLAAEAGHEDIAEVLQKAA
notes: Bispecific DARPin; also called Construct 17

binding result [1]: binds | binding result [2]: no binding (tested: 1000 nM)
B2: Construct No. 16 (SEQ ID NO: 19), 2D (HER2 × CD16a), DARPin #4 with N-terminal HER2 binder of SEQ ID NO: 9 (designed binder)
chain: MRGSHHHHHHDYKDDDDKPTPTPTGSDLGIKLLFAAAKGQDDEVRELLKAGADVNAKDFQGVTPLHIAAQSGHLEIVEVLLKAGADVNAKDVTGDTPLHLAAQHGHLEIVEVLLKAGADVNAQDERGWTPADLAADWGHEDIAEVLQKAAGSPTPTPTTPTPTPTTPTPTPTGSDLGEKLLLAAALGQDDEVRELLKAGADVNAKDVQGSTPLHLAAVEGHLEIVEVLLKAGADVNAKDQWGQTPLHVAAIWGHLEIVEVLLKAGADVNAQDELGKTPADLVALQGHEDIAEVLQKAA
notes: Bispecific DARPin; also called Construct 16

binding result [1]: binds | binding result [2]: no binding (tested: 1000 nM)
B3: Construct No. 18 (SEQ ID NO: 21), 2D (HER2 × CD16a), DARPin #6 with N-terminal HER2 binder of SEQ ID NO: 9 (designed binder)
chain: MRGSHHHHHHDYKDDDDKPTPTPTGSDLGIKLLFAAAKGQDDEVRELLKAGADVNAKDFQGVTPLHIAAQSGHLEIVEVLLKAGADVNAKDVTGDTPLHLAAQHGHLEIVEVLLKAGADVNAQDERGWTPADLAADWGHEDIAEVLQKAAGSPTPTPTTPTPTPTTPTPTPTGSDLGKKLLEAAEEGQDDEVRELLKAGADVNAKDEWGSTPLHIAAWVGHLEIVEVLLKAGADVNAKDSLGATPLHLAAEAGHLEIVEVLLKAGADVNAQDLKGKTPADLAALEGHEDIAEVLQKAA
notes: Bispecific DARPin; also called Construct 18

binding result [3]: no binding (tested: 400 nM) | EC50 (pM), ADCC reporter assay (luminescence), SKOV3 target cells, E:T 5:1, 5 h [4]: 0.37 pM | EC50 ADCC reporter assay (CD16a) (pM), SKOV3 target cells, E:T 1:1, 24 h [5]: 4 pM
B4: Construct No. 7 (SEQ ID NO: 10), 2D (HER2 × CD16a), DARPin #2 with N-terminal HER2 binder of SEQ ID NO: 8 (designed binder)
chain: MRGSHHHHHHGSDLGKKLLEAARAGQDDEVRELLKAGADVNAKDEYGLTPLYLATAHGHLEIVEVLLKAGADVNAVDAIGFTPLHLAAFIGHLEIAEVLLKAGADVNAQDKFGKTPADIAAGAGNEDIAEVLQKAAGSPTPTPTTPTPTPTTPTPTPTGSDLGQKLLRAAKKGQDDEVRELLKAGADVNAKDEQGWTPLHIAAWKGHLEIVEVLLKAGADVNAKDVFDWTPLHVAAHFGHLEIVEVLLKAGADVNAQDRAGETPADLAAQAGHEDIAEVLQKAA
notes: Bispecific DARPin; also called Construct 7

EC50 (pM), DDCC reporter assay (luminescence), Kasumi-1 target cells, E:T 1:1, 24 h [6]: 59.5 pM | Top (RLU), DDCC reporter assay (luminescence), Kasumi-1 target cells [6]: 36400 RLU | binding result [7]: no binding | EC50 [8]: 25.3 nM
B5: Construct 25 (SEQ ID NO: 94), CD117 × CD16a, CD117 binder SEQ ID NO: 84 N-terminal of DARPin #7 (designed binder)
chain: MRGSHHHHHHGSDLGQKLLKAAQYGQDDEVRILLAAGADVNAKDWAGKTPLHVAAEAGHLEIVEVLLKAGADVNAKDKAGETPLHLAAEQGHLEIVEVLLKAGADVNAQDEWGQTPADLAAYYGLEDIAEVLQKAAGSPTPTPTTPTPTPTTPTPTPTGSDLGQKLLRAAKKGQDDEVRELLKAGADVNAKDEQGWTPLHNAAWKGHLEIVEVLLKAGADVNAKDVFDWTPLHVAAHFGHLEIVEVLLKAGADVNAQDRAGETPADLAAQAGHEDIAEVLQKAA
notes: Bispecific DARPin; also called Construct No. 25

Kd [9]: 3.41 nM | Kd [10]: 5.94 nM | binding result [11]: binds | Kd [12]: 3.3 nM | binding result [13]: no binding (tested: 1000 nM)
B6: Construct No. 1 (1D CD16a; DARPin #2 of SEQ ID NO: 2 with N-terminal His tag) (designed binder)
chain: MRGSHHHHHHGSDLGQKLLRAAKKGQDDEVRELLKAGADVNAKDEQGWTPLHIAAWKGHLEIVEVLLKAGADVNAKDVFDWTPLHVAAHFGHLEIVEVLLKAGADVNAQDRAGETPADLAAQAGHEDIAEVLQKAA
notes: also called Construct 1

Kd [9]: 0.904 nM | Kd [10]: 1.98 nM
B7: DARPin #7 (SEQ ID NO: 7) with N-terminal His tag (designed binder)
chain: B6 chain with I53N

EC50 (read off the curve) [11]: ~20 nM | binding result [13]: no binding (tested: 1000 nM)
B8: Construct No. 2 (1D CD16a; DARPin #3 of SEQ ID NO: 3 with N-terminal His tag) (designed binder)
chain: MRGSHHHHHHGSDLGKKLLQAARAGQLDEVRELLKAGADVNAKDEQGRTPLHIAAASGHLEIVEVLLKAGADVNAKDWFGITPLHIAAWWGHLEIVEVLLKAGADVNAKDQEGRTPLHIAAAIGHLEIVEVLLKAGADVNAQDKSGKTPADLAARAGHQDIAEVLQKAA
notes: also called Construct 2

Reference: patent US20260250338A1 (Molecular Partners, published 2026)
